# Assay results taken from paper PMC11969024 (2025).
# B1: peptide HD2 (from tick evasin EVA4) / CCL11 (biotinylated, synthetic) (parent complex)
# chain 1: EEDDYTAYAPLTCYFT
# chain 2: not shown
# Variants of: B1
row,Variant,enrichment
1,chain 1 C13T,-6.48 log2 (difference from the parental peptide)
2,chain 1 C13L,-6.8 log2 (difference from the parental peptide)
3,chain 1 C13P,-6.72 log2 (difference from the parental peptide)
4,chain 1 C13E,-8.19 log2 (difference from the parental peptide)
5,chain 1 C13N,-8.78 log2 (difference from the parental peptide)
6,chain 1 C13V,-5.2 log2 (difference from the parental peptide)
7,chain 1 C13W,-7.9 log2 (difference from the parental peptide)
8,chain 1 C13I,-6.17 log2 (difference from the parental peptide)
9,chain 1 Y8C,-9.26 log2 (difference from the parental peptide)
10,chain 1 Y8I,-9.96 log2 (difference from the parental peptide)
11,chain 1 Y5E,0.188 log2 (difference from the parental peptide)
12,chain 1 Y5L,-2.37 log2 (difference from the parental peptide)
13,chain 1 Y5C,-5.28 log2 (difference from the parental peptide)
14,chain 1 Y14G,-8.75 log2 (difference from the parental peptide)
15,chain 1 Y14A,-6.29 log2 (difference from the parental peptide)
16,chain 1 Y14W,-0.519 log2 (difference from the parental peptide)
17,chain 1 Y14M,-2.62 log2 (difference from the parental peptide)
18,chain 1 Y14N,-4.02 log2 (difference from the parental peptide)
19,chain 1 Y14L,-3.46 log2 (difference from the parental peptide)
20,chain 1 L11A,-0.668 log2 (difference from the parental peptide)
21,chain 1 L11K,-0.948 log2 (difference from the parental peptide)
22,chain 1 L11G,-5.15 log2 (difference from the parental peptide)
23,chain 1 L11W,-0.874 log2 (difference from the parental peptide)
24,chain 1 T6H,-0.677 log2 (difference from the parental peptide)
25,chain 1 T6S,2.88 log2 (difference from the parental peptide)

row,Variant,enrichment
1,chain 1 T6W,-0.511 log2 (difference from the parental peptide)
2,chain 1 T6V,-3.9 log2 (difference from the parental peptide)
3,chain 1 T6R,-0.866 log2 (difference from the parental peptide)
4,chain 1 T6Y,-1.69 log2 (difference from the parental peptide)
5,chain 1 T6G,2.76 log2 (difference from the parental peptide)
6,chain 1 A9I,-10.6 log2 (difference from the parental peptide)
7,chain 1 A9P,-8.38 log2 (difference from the parental peptide)
8,chain 1 A9W,-5.62 log2 (difference from the parental peptide)
9,chain 1 A9Q,-0.313 log2 (difference from the parental peptide)
10,chain 1 A9N,-5.15 log2 (difference from the parental peptide)
11,chain 1 A9T,-3.11 log2 (difference from the parental peptide)
12,chain 1 D4V,-4.79 log2 (difference from the parental peptide)
13,chain 1 A7I,-0.213 log2 (difference from the parental peptide)
14,chain 1 A7H,-0.338 log2 (difference from the parental peptide)
15,chain 1 A7Q,2.3 log2 (difference from the parental peptide)
16,chain 1 A7L,0.532 log2 (difference from the parental peptide)
17,chain 1 E1I,-0.709 log2 (difference from the parental peptide)
18,chain 1 E1Q,-0.591 log2 (difference from the parental peptide)
19,chain 1 E1M,-0.0601 log2 (difference from the parental peptide)
20,chain 1 E1N,-0.236 log2 (difference from the parental peptide)
21,chain 1 E1W,-3.15 log2 (difference from the parental peptide)
22,chain 1 E1L,-1.42 log2 (difference from the parental peptide)
23,chain 1 T16N,0.695 log2 (difference from the parental peptide)
24,chain 1 T16P,1.77 log2 (difference from the parental peptide)
25,chain 1 T16E,2.21 log2 (difference from the parental peptide)

row,Variant,enrichment
1,chain 1 T16S,1.18 log2 (difference from the parental peptide)
2,chain 1 T16G,1.39 log2 (difference from the parental peptide)
3,chain 1 T12E,-1.39 log2 (difference from the parental peptide)
4,chain 1 T12G,-9.29 log2 (difference from the parental peptide)
5,chain 1 T12V,-0.494 log2 (difference from the parental peptide)
6,chain 1 T12L,-0.794 log2 (difference from the parental peptide)
7,chain 1 T12I,-1.03 log2 (difference from the parental peptide)
8,chain 1 T12C,-6.12 log2 (difference from the parental peptide)
9,chain 1 D3Q,-4.56 log2 (difference from the parental peptide)
10,chain 1 D3R,-4.57 log2 (difference from the parental peptide)
11,chain 1 D3Y,-0.781 log2 (difference from the parental peptide)
12,chain 1 D3T,-2 log2 (difference from the parental peptide)
13,chain 1 D3V,-3.65 log2 (difference from the parental peptide)
14,chain 1 D3K,-4.93 log2 (difference from the parental peptide)
15,chain 1 D3A,-2.56 log2 (difference from the parental peptide)
16,chain 1 D3G,-2.94 log2 (difference from the parental peptide)
17,chain 1 P10E,-7.48 log2 (difference from the parental peptide)
18,chain 1 E2N,-2.1 log2 (difference from the parental peptide)
19,chain 1 E2Q,-1.08 log2 (difference from the parental peptide)
20,chain 1 E2K,-3.4 log2 (difference from the parental peptide)
21,chain 1 F15A,0.737 log2 (difference from the parental peptide)
22,chain 1 F15T,1.13 log2 (difference from the parental peptide)
23,chain 1 F15L,0.0745 log2 (difference from the parental peptide)
24,chain 1 F15M,0.54 log2 (difference from the parental peptide)
25,chain 1 F15E,0.713 log2 (difference from the parental peptide)
